# Substitutions are numbered along the chain they refer to.
# B1: SA-16 Fab (Fab, V domains shown)
# VH: QVQLQQWGAGLLKPSETLSLTCAVYGGSFSGYYWSWIRQPPGKGLEWIGEIDHSGSTNYNPSLKSRVTISVDTSKNQFSLKLSSVTAADTAVYYCARDLGPPGPHLDVWGQGTMVTVSS
# VL: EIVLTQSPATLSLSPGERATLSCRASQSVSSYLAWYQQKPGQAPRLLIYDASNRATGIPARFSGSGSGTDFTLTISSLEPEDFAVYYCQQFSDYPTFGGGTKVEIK
# notes: papain Fab
# B2: SA-28 Fab (Fab, V domains shown)
# VH: QVQLQESGPGLVKPSQTLSLTCTVSGGSISSGGYYWSWIRQHPGKGLEWIGNIYYSGSTYYNPSLKSRVTISVDTSKNQFSLKLSSVTAADTAVYYCARDSDTSWGGFDYWGQGTLVTVSS
# VL: EIVLTQSPGTLSLSPGERATLSCRASQSVRSSYLAWYQQKPGQAPRLLIYGASSRATGIPDRFSGSGSGTDFTLTISRLEPEDFAVYYCQQAGVSPYTFGGGTKVEIK
# notes: papain Fab
# B3: SA-35 Fab (Fab, V domains shown)
# VH: QVQLVQSGAEVKKPGASVKVSCKASGYTFTSYYMHWVRQAPGQGLEWMGIINPSGGSTSYAQKFQGRVTMTRDTSTSTVYMELSSLRSEDTAVYYCAREAGYDIKGFDYWGQGTLVTVSS
# VL: DIQMTQSPSTLSASVGDRVTITCRASQSISSWLAWYQQKPGKAPKLLIYKASSLESGVPSRFSGSGSGTEFTLTISSLQPDDFATYYCQQYGSFPLTFGGGTKVEIK
# B4: SA-56-85 Fab (Fab, V domains shown)
# VH: EVQLLESGGGVVQPGRSLGLSCAASGSTFSYYGMSWVRQAPGKGLEWVASIWVDGSNKYYADSVKGRFTISRDNSKSTLYLQMNSLRAEDTAVYYCARGVETYSGPNWFDPWGQGTLVTVSS
# VL: DIQMTQSPSSVSASVGDRVTITCRASQGISSWLAWYQQKPGKAPKLLIYAASSLQSGVPSRFSGSGSGTDFTLTISSLQPEDFATYYCQQAIYFPITFGGGTKVENQ
# notes: papain Fab
# B5: SA-56-87 Fab (Fab, V domains shown)
# VH: B4 VH with L5V, G19R, S27F, S77N, R98F, V100L
# VL: B4 VL with N106I, Q107K
# notes: papain Fab
# B6: SA-56-88 Fab (Fab, V domains shown)
# VH: B4 VH with L5V, G19R, S27F, V64A, S77N, R98E, V100K
# VL: B4 VL with N106I, Q107K
# notes: papain Fab
# B7: SA-56-89 Fab (Fab, V domains shown)
# VH: B4 VH with L5V, R16G, G19R, S27F, I70V, S77N, N84D
# VL: B4 VL with N106I, Q107K
# notes: papain Fab
# B8: SA-56-91 Fab (Fab, V domains shown)
# VH: B4 VH with L5V, G19R, S27F, S30A, Y31H, S35A, S77N, R98T, G99A
# VL: B4 VL with N106I, Q107K
# notes: papain Fab
# B9: SA-56-92 Fab (Fab, V domains shown)
# VH: B4 VH with L5V, G19R, S27F, S77N, N84D, R98T
# VL: B4 VL with N106I, Q107K
# notes: papain Fab
# B10: SA-56-93 Fab (Fab, V domains shown)
# VH: B4 VH with G19R, S27F, S77N, T78A, R98V, G99S, V100R
# VL: B4 VL with N106I, Q107K
# notes: papain Fab
# B11: SA-56-95 Fab (Fab, V domains shown)
# VH: EVQLLESGGGVVQPGRSLRLSCAASGFTFAHYGMAWVRQAPGKGLEWVAVIWVDGSPKYYADSVKGRFTISRDNSKNTLYLQMNSLRAEDTAVYYCAVARETYSGPNWFDPWGQGTLVTVSS
# VL: B4 VL with N106I, Q107K
# notes: papain Fab
# B12: SA-56-96 Fab (Fab, V domains shown)
# VH: B11 VH with A30S, H31S, G33A, A35G, P57L, V98T, A99G
# VL: B4 VL with N106I, Q107K
# notes: papain Fab
# Target: T1, human SIRPA Fc fusion antigen (human, UniProt P78324 31-373)
# T1 construct: heterologous signal peptide; not shown: human IgG1 Fc
# Assay: ForteBio Fab monovalent
# Experimental: Briefly, ForteBio affinity measurements were performed by loading IgGs on-line onto AHQ sensors. Sensors were equilibrated off-line in assay buffer for 30 min and then monitored on-line for 60 seconds for baseline establishment. For avid binding measurement, sensors with loaded IgGs were exposed to 100 nM antigen (human SIRPA or SIRPβ1 Fc fusion) for 3 min, afterwards they were transferred to assay buffer for 3 min for off-rate measurement. Additional avid binding was determined by loading biotinylated SIRPA monomer on SA sensors and exposure to 100 nM IgG in solution. Monovalent binding measurements were obtained by loading human SIRPA or SIRPβ1 Fc fusion antigens to AHQ sensor and followed by exposure to 100 nM anti-SIRPA antibody Fab. Additional monovalent measurements were made by loading biotinylated human SIRPA or SIRPβ1 monomer to SA sensor followed by exposure to 100 nM Fab in solution. Kinetics data were fit using a 1:1 binding model in the data analysis software provided by ForteBio.
row,Binder,Kd
1,B1,257 nM
2,B2,486 nM
3,B3,497 nM

# Target: T2, biotinylated human SIRPA (monomer) (human, UniProt P78324 31-373, limits assumed, biotinylated)
# T2 construct: monomer made by IdeS cleavage of a SIRPA Fc fusion; also called recombinant human SIRPA
# Assay: MSD-SET, Fab, equilibrium;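 note: solution equilibrium titration, free antigen captured on antibody-coated MSD plates and detected by electrochemiluminescence with labeled streptavidin, percent free antigen versus titrated antibody fit to quadratic model for KD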
# Experimental: Antibodies (20 nM in PBS) were coated onto standard bind MSD-ECL plates overnight at 4° C. or at room temperature for 30 min. Plates were then blocked with 1% BSA for 30 min with shaking at 700 rpm, followed by three washes with wash buffer (PBSF+0.05% Tween 20). SET samples were applied and incubated on the plates for 150s with shaking at 700 rpm followed by one wash. Antigen captured on a plate was detected with 250 ng/ml sulfotag-labeled streptavidin in PBSF by incubation on the plate for 3 min. The plates were washed three times with wash buffer and then read on the MSD Sector Imager 2400 instrument using 1× Read Buffer T with surfactant. The percent free antigen was plotted as a function of titrated antibody in Prism and fit to a quadratic equation to extract the KD. To improve throughput, liquid handling robots were used throughout MSD-SET experiments, including SET sample preparation.
row,Binder,Kd
1,B4,0.12 nM
2,B5,0.17 nM
3,B6,0.16 nM
4,B7,0.25 nM
5,B8,0.51 nM
6,B9,0.35 nM
7,B10,0.36 nM
8,B11,0.52 nM
9,B12,1.6 nM

# Target: T1, human SIRPA Fc fusion antigen
# Assay: ForteBio Fab monovalent
# Remark: another data set of the same source
# Experimental: Briefly, ForteBio affinity measurements were performed by loading immunoglobulins (IgGs) on-line onto AHQ sensors. Sensors were equilibrated off-line in assay buffer for 30 min and then monitored on-line for 60 seconds for baseline establishment. For avid binding measurement, sensors with loaded IgGs were exposed to 100 nM antigen (human SIRPA or SIRPβ1 Fc fusion) for 3 min, afterwards they were transferred to assay buffer for 3 min for off-rate measurement. […] Monovalent binding measurements were obtained by loading human SIRPA Fc fusion antigens to AHQ sensor and followed by exposure to 100 nM anti-SIRPA antibody Fab.
# Additional monovalent measurements were made by loading biotinylated human SIRPA monomer to SA sensor followed by exposure to 100 nM Fab in solution. Kinetics data were fit using a 1:1 binding model in the data analysis software provided by ForteBio.
row,Binder,Kd
1,B4,0.772 nM
2,B5,1.1 nM
3,B6,0.836 nM
4,B7,1.03 nM
5,B8,1.64 nM
6,B9,1.29 nM
7,B10,2.34 nM
8,B11,2.98 nM
9,B12,5.35 nM

# Target: T3, human SIRPβ1 Fc fusion antigen (human, UniProt O00241 30-371)
# T3 construct: not shown: human IgG1 Fc
# T3 sequence (O00241 30-371 limits assumed): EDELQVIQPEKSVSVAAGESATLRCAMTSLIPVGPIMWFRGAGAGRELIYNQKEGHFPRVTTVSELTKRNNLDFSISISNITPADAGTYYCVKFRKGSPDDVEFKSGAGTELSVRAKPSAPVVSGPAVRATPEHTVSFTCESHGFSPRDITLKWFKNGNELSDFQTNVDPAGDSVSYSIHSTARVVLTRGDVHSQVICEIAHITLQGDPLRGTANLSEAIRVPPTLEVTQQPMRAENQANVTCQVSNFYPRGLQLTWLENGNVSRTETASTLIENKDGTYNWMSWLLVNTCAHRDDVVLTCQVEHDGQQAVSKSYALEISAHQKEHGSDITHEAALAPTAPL
# Assay: ForteBio Fab monovalent
row,Binder,binding result
1,B4,no binding (tested: 100 nM)
2,B5,no binding (tested: 100 nM)
3,B6,no binding (tested: 100 nM)
4,B7,no binding (tested: 100 nM)
5,B8,no binding (tested: 100 nM)
6,B9,no binding (tested: 100 nM)
7,B10,no binding (tested: 100 nM)
8,B11,no binding (tested: 100 nM)
9,B12,no binding (tested: 100 nM)
